Measured values taken from PMC12562601.

Experiments:
[1] = target: low-sensitive (LS) (α4)3(β2)2 nicotinic acetylcholine receptor (human) (UniProt P43681)
[2] = target: α3β2 nicotinic acetylcholine receptor (human) (UniProt P32297)
[3] = target: high-sensitive (HS) (α4)2(β2)3 nicotinic acetylcholine receptor (human) (UniProt P43681)

Measured: Maximal inhibition of ACh-evoked currents, % (single level fitted for all three datasets), two-electrode voltage clamp in X. laevis oocytes

Sequence of UniProt P32297 (P32297 32-505, chain 1 of 2): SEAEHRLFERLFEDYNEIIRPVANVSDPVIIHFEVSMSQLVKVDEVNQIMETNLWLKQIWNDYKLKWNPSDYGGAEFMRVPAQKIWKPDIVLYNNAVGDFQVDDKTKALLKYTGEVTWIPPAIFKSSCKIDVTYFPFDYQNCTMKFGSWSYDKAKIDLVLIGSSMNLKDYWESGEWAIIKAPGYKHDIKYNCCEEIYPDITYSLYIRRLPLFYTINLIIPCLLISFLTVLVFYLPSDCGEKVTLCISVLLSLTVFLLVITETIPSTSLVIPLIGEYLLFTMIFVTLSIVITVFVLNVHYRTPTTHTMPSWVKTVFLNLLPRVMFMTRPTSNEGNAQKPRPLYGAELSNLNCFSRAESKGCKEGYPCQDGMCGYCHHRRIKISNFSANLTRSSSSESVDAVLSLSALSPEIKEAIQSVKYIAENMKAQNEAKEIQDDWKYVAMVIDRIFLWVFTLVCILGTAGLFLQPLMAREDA
Sequence of UniProt P32297 (P17787 26-502, chain 2 of 2, further chain): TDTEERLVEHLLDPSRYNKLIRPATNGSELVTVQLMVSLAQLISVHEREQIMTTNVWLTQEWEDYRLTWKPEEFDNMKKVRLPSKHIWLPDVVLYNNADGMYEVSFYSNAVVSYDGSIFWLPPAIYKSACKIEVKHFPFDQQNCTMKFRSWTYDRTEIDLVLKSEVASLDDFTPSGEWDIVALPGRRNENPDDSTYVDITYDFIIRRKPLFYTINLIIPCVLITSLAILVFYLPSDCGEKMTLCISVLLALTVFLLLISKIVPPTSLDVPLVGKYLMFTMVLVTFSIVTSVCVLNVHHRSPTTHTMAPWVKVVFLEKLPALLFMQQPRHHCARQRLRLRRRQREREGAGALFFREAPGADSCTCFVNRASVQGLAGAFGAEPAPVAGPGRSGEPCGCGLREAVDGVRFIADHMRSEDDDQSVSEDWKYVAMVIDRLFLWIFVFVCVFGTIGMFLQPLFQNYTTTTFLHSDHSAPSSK

water-soluble recombinant analog of human prostate stem cell antigen (ws-PSCA) (domain or fragment)
31%: all assays above
